Source: US20250026827A1 (Alector, published 2025)
Changes are numbered by the printed parent chain. Values belong to the binder of their own block, whether it stands above or below them.

Tests used:
[1] = biological target: T1, human SIRPβ1 domain 1 (D1) Fc fusion (human, UniProt O00241 30-148); assay: Octet, IgG avid
T1 construct: Made in HEK293/T cells with a heterologous signal peptide; also called Human SIRPβ1 D1-Fc; Human SIRPβ1-Fc; not shown: C-terminal human IgG1 Fc

[2] = biological target: T2, human SIRPα domain 1 (D1) Fc fusion (human, UniProt P78324 32-149); assay: Octet
T2 construct: also called human SIRPα D1-Fc; Human SIRPα Fc; not shown: C-terminal human IgG1 Fc

[3] = biological target: T3, mouse SIRPα D1-Fc (mouse, UniProt P97797 32-150, limits assumed); assay: Octet
T3 construct: domain: D1
T3 sequence (looked up): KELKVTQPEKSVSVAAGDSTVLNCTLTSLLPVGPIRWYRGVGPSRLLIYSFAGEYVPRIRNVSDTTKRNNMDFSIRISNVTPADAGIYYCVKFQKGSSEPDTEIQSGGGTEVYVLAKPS

[4] = biological target: T4, mouse SIRPβ1 on CHO cells (mouse); assay: flow cytometry;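 for FOB: antibodies tested at 1 µg/ml for 30 min on ice against receptor-expressing cells, detected with a PE-labelled secondary antibody, read as mean fluorescence intensity relative to background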
T4 construct: Whole entry
T4 chain: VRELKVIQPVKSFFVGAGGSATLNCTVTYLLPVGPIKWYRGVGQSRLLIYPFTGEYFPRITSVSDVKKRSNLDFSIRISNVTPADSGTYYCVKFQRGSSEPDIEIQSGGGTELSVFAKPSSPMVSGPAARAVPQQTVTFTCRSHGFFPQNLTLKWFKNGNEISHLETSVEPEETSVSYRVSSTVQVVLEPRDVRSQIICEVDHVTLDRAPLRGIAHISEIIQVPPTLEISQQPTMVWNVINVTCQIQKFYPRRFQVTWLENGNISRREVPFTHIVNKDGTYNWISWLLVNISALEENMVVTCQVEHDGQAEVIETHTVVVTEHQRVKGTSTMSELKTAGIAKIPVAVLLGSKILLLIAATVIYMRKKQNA

[5] = biological target: T5, human SIRPβ1 isoform 1 on cells (human, UniProt O00241 30-398); assay: flow cytometry;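 note: antibodies tested at 1 µg/ml for 30 min on ice against receptor-expressing cells, detected with a PE-labelled secondary antibody, read as mean fluorescence intensity relative to background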
T5 construct: On CHO cells (low level), on BWZ/BW5147.G.1.4 cells (reporter cells co-express human DAP12) or on primary human myeloid cells; also called huSIRPβ1; BWZ-huSIRPβ1
T5 sequence (O00241 30-398): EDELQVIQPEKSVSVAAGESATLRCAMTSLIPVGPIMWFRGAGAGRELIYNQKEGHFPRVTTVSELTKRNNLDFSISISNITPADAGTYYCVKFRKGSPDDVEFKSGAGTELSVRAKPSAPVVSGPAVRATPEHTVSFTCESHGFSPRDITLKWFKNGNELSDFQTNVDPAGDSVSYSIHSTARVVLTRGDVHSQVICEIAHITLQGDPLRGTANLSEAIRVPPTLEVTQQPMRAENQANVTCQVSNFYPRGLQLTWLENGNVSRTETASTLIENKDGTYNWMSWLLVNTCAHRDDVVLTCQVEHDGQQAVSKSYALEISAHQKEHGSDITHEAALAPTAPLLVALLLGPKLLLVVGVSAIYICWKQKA

[6] = biological target: T6, mouse SIRPα on cells (mouse, UniProt P97797 32-513); assay: flow cytometry;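 for FOB: antibodies tested at 1 µg/ml for 30 min on ice against receptor-expressing cells, detected with a PE-labelled secondary antibody, read as mean fluorescence intensity relative to background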
T6 construct: whole, on cells
T6 sequence (looked up): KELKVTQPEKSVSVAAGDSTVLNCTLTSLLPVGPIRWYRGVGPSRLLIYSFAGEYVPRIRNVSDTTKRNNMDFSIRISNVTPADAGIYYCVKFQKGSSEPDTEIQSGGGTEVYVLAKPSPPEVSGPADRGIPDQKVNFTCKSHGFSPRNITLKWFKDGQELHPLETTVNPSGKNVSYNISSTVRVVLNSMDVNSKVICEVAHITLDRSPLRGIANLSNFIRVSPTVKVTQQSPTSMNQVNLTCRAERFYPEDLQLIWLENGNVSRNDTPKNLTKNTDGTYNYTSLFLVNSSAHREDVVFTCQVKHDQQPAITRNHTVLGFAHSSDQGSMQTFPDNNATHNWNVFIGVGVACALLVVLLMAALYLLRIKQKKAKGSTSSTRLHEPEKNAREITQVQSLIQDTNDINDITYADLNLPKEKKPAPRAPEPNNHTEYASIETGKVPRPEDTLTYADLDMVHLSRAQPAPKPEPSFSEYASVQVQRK

[7] = biological target: T7, human SIRPα on cells (human, UniProt P78324 31-504); assay: flow cytometry;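 for FOB: antibodies tested at 1 µg/ml for 30 min on ice against receptor-expressing cells, detected with a PE-labelled secondary antibody, read as mean fluorescence intensity relative to background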
T7 construct: Whole entry

[8] = biological target: T4, mouse SIRPβ1 on CHO cells; assay: flow cytometry
[9] = biological target: T6, mouse SIRPα on cells; assay: flow cytometry; remark: listed apart in the source
[10] = biological target: T7, human SIRPα on cells; assay: flow cytometry; remark: listed apart in the source

T1 sequence (O00241 30-148 limits assumed): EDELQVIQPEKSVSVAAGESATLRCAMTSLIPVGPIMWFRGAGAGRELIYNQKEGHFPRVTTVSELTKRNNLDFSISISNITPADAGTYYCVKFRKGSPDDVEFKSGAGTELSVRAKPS

Kd [1]: 3.45 nM | binding result [2]: no binding (tested: 100 nM) | binding result [3]: no binding (tested: 100 nM) | FOB [4]: 1.3 fold over background | FOB [5]: 8 fold over background | FOB [6]: 1.4 fold over background | FOB [7]: 2.2 fold over background | binding result [8]: no binding (tested: 1 ug/ml) | binding result [9]: no binding (tested: 1 ug/ml) | binding result [10]: no binding (tested: 1 ug/ml)
B1: SB-15 (antibody, V domains shown)
VH: QLQLQESGPGLVKPSETLSLTCTVSGGSISSNSYYWGWIRQPPGKGLEWIGSIYYSGSTYYNPSLKSRVTISVDTSKNQFSLKLSSVTAADTAVYYCAREVGAPPSYPFDIWGQGTMVTVSS
VL: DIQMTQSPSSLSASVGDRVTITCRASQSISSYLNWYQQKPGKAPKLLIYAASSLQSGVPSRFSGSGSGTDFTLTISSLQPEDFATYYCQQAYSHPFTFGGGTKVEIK
notes: IgG

Kd [1]: 7.41 nM | binding result [2]: no binding (tested: 100 nM) | binding result [3]: no binding (tested: 100 nM) | FOB [4]: 1.3 fold over background | FOB [5]: 1.8 fold over background | FOB [6]: 0.9 fold over background | FOB [7]: 2.2 fold over background | binding result [8]: no binding (tested: 1 ug/ml) | binding result [9]: no binding (tested: 1 ug/ml) | binding result [10]: no binding (tested: 1 ug/ml)
B2: SB-19 (antibody, V domains shown)
VH: QVQLVQSGAEVKKPGSSVKVSCKASGGTFSSYAISWVRQAPGQGLEWMGGIIPIFGTANYAQKFQGRVTITADESTSTAYMELSSLRSEDTAVYYCARDGGGGYAYEYFQHWGQGTLVTVSS
VL: not shown
notes: IgG

Kd [1]: 21.4 nM | binding result [3]: no binding (tested: 100 nM) | FOB [4]: 1.4 fold over background | FOB [5]: 5 fold over background | FOB [6]: 1.1 fold over background | FOB [7]: 2 fold over background | binding result [8]: no binding (tested: 1 ug/ml) | binding result [9]: no binding (tested: 1 ug/ml)
B3: SB-39 (antibody, V domains shown)
VH: QVQLQESGPGLVKPSETLSLTCAVSGYSISSGYYWAWIRQPPGKGLEWIGSIYHSGSTYYNPSLKSRVTISVDTSKNQFSLKLSSVTAADTAVYYCARGGSNYGDYGRFDYWGQGTLVTVSS
VL: DIQMTQSPSSLSASVGDRVTITCRASQSISSYLNWYQQKPGKAPKLLIYGASSLQSGVPSRFSGSGSGTDFTLTISSLQPEDFATYYCQQSYDFPLTFGGGTKVEIK
notes: IgG

Kd [1]: 6.17 nM | binding result [2]: no binding (tested: 100 nM) | binding result [3]: no binding (tested: 100 nM) | FOB [4]: 1.3 fold over background | FOB [5]: 2 fold over background | FOB [6]: 1.2 fold over background | FOB [7]: 2.1 fold over background | binding result [8]: no binding (tested: 1 ug/ml) | binding result [9]: no binding (tested: 1 ug/ml) | binding result [10]: no binding (tested: 1 ug/ml)
B4: SB-26 (antibody, V domains shown)
VH: QVQLVQSGAEVKKPGSSVKVSCKASGGTFSSYAISWVRQAPGQGLEWMGGIIPIFGTANYAQKFQGRVTITADESTSTAYMELSSLRSEDTAVYYCARDGSAGRQEHGMDVWGQGTTVTVSS
VL: not shown
notes: IgG

Kd [1]: 5.86 nM | binding result [2]: no binding (tested: 100 nM) | binding result [3]: no binding (tested: 100 nM) | FOB [4]: 1.3 fold over background | FOB [5]: 1.9 fold over background | FOB [6]: 1.2 fold over background | FOB [7]: 2 fold over background | binding result [8]: no binding (tested: 1 ug/ml) | binding result [9]: no binding (tested: 1 ug/ml) | binding result [10]: no binding (tested: 1 ug/ml)
B5: SB-21 (antibody, V domains shown)
VH: QVQLVQSGAEVKKPGASVKVSCKASGYTFTSNGISWVRQAPGQGLEWMGWISAYNGNTNYAQKLQGRVTMTTDTSTSTAYMELRSLRSDDTAVYYCARVGNMDQEYFDLWGRGTLVTVSS
VL: not shown
notes: IgG

Kd [1]: 3.32 nM | binding result [2]: no binding (tested: 100 nM) | binding result [3]: no binding (tested: 100 nM) | FOB [4]: 1.3 fold over background | FOB [5]: 2.8 fold over background | FOB [6]: 1.6 fold over background | FOB [7]: 2.5 fold over background | binding result [8]: no binding (tested: 1 ug/ml) | binding result [9]: no binding (tested: 1 ug/ml) | binding result [10]: no binding (tested: 1 ug/ml)
B6: SB-17 (antibody, V domains shown)
VH: QVQLVQSGAEVKKPGASVKVSCKASGYTFTSYGISWVRQAPGQGLEWMGWISAYNGNTNYAQKLQGRVTMTTDTSTSTAYMELRSLRSDDTAVYYCARGPLLYGDYHVRYGMDVWGQGTTVTVSS
VL: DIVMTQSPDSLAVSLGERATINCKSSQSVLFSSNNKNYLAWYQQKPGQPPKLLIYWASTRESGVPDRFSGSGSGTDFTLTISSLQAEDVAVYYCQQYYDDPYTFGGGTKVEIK
notes: IgG

Kd [1]: 10.3 nM | binding result [3]: no binding (tested: 100 nM) | FOB [4]: 1.3 fold over background | FOB [5]: 1.7 fold over background | FOB [6]: 1.7 fold over background | FOB [7]: 2.2 fold over background | binding result [8]: no binding (tested: 1 ug/ml) | binding result [9]: no binding (tested: 1 ug/ml)
B7: SB-41 (antibody, V domains shown)
VH: QLQLQESGPGLVKPSETLSLTCTVSGGSISSSSYYWGWIRQPPGKGLEWIGSIYYSGSTYYNPSLKSRVTISVDTSKNQFSLKLSSVTAADTAVYYCARVGQYPIYGMDVWGQGTTVTVSS
VL: DIQMTQSPSSLSASVGDRVTITCQASQDITNYLNWYQQKPGKAPKLLIYDASNLETGVPSRFSGSGSGTDFTFTISSLQPEDIATYYCQQADNFPYTFGGGTKVEIK
notes: IgG

Kd [1]: 4.39 nM | binding result [3]: no binding (tested: 100 nM) | FOB [4]: 1.2 fold over background | FOB [5]: 3.4 fold over background | FOB [6]: 1.7 fold over background | FOB [7]: 2.7 fold over background | binding result [8]: no binding (tested: 1 ug/ml) | binding result [9]: no binding (tested: 1 ug/ml)
B8: SB-49 (antibody, V domains shown)
VH: QLQLQESGPGLVKPSETLSLTCTVSGGSISSSDYYWGWIRQPPGKGLEWIGSIYYSGSTYYNPSLKSRVTISVDTSKNQFSLKLSSVTAADTAVYYCARGPTGYKDKWRYYYGMDVWGQGTTVTVSS
VL: B7 VL with A91Y, D92F, N93H, F94P, Y96L
notes: IgG

Kd [1]: 1.3 nM | binding result [2]: no binding (tested: 100 nM) | binding result [3]: no binding (tested: 100 nM) | FOB [4]: 1.2 fold over background | FOB [5]: 4.3 fold over background | FOB [6]: 1 fold over background | FOB [7]: 1.2 fold over background | binding result [8]: no binding (tested: 1 ug/ml) | binding result [9]: no binding (tested: 1 ug/ml) | binding result [10]: no binding (tested: 1 ug/ml)
B9: SB-6 (antibody, V domains shown)
VH: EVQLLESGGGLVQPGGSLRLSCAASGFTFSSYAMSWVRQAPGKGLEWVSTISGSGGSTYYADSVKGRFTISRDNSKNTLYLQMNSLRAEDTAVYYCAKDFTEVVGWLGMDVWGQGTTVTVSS
VL: EIVLTQSPGTLSLSPGERATLSCRASQSVSSSYLAWYQQKPGQAPRLLIYGASSRATGIPDRFSGSGSGTDFTLTISRLEPEDFAVYYCQQSGHLPITFGGGTKVEIK
notes: IgG

Kd [1]: 5.59 nM | binding result [2]: no binding (tested: 100 nM) | binding result [3]: no binding (tested: 100 nM) | FOB [4]: 1.2 fold over background | FOB [5]: 4.1 fold over background | FOB [6]: 1 fold over background | FOB [7]: 2.1 fold over background | binding result [8]: no binding (tested: 1 ug/ml) | binding result [9]: no binding (tested: 1 ug/ml) | binding result [10]: no binding (tested: 1 ug/ml)
B10: SB-28 (antibody, V domains shown)
VH: QLQLQESGPGLVKPSETLSLTCTVSGGSISSSSYYWGWIRQPPGKGLEWIGSISYSGSTYYNPSLKSRVTISVDTSKNQFSLKLSSVTAADTAVYYCARDPRDYSSGSSGGGWGYFDLWGRGTLVTVSS
VL: B9 VL with S92D, H94N, L95F, I97L
notes: IgG

Kd [1]: 7.13 nM | binding result [3]: no binding (tested: 100 nM) | FOB [4]: 1.2 fold over background | FOB [5]: 1.5 fold over background | FOB [6]: 1.2 fold over background | FOB [7]: 2.2 fold over background | binding result [8]: no binding (tested: 1 ug/ml) | binding result [9]: no binding (tested: 1 ug/ml)
B11: SB-32 (antibody, V domains shown)
VH: QVQLQESGPGLVKPSETLSLTCTVSGGSISSYYWSWIRQPPGKGLEWIGYIYSSGSTNYNPSLKSRVTISVDTSKNQFSLKLSSVTAADTAVYYCARGDSSSGGLDLWGRGTLVTVSS
VL: not shown
notes: IgG
